Measured values: patent US20050048477A1 (published 2005)

T1: wild type Gal3p (yeast, UniProt P13045 1-520)
T1 construct: also called native Gal3p
T1 sequence (looked up): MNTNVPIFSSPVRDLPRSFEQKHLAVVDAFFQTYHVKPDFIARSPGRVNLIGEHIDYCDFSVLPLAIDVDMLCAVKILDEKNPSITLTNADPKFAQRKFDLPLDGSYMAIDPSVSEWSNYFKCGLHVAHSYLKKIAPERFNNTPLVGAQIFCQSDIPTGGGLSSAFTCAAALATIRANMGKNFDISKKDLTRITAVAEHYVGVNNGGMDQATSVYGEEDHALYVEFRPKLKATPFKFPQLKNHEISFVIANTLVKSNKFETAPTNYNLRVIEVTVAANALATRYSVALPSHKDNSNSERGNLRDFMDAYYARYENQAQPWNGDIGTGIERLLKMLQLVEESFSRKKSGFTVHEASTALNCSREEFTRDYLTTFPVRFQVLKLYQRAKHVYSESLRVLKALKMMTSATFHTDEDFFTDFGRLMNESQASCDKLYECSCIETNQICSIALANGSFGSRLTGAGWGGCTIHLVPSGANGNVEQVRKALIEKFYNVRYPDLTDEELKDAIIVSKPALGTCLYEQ

T2: Gal80-Fpr1p fusion (yeast, UniProt P04387 1-435; P20081 1-114)
T2 construct: Encoded on a pRS416 backbone; also called pGP82; not shown: 2 HA tags derived from oligonucleotides GANG33/34 (DNA only)
T2 sequence (looked up): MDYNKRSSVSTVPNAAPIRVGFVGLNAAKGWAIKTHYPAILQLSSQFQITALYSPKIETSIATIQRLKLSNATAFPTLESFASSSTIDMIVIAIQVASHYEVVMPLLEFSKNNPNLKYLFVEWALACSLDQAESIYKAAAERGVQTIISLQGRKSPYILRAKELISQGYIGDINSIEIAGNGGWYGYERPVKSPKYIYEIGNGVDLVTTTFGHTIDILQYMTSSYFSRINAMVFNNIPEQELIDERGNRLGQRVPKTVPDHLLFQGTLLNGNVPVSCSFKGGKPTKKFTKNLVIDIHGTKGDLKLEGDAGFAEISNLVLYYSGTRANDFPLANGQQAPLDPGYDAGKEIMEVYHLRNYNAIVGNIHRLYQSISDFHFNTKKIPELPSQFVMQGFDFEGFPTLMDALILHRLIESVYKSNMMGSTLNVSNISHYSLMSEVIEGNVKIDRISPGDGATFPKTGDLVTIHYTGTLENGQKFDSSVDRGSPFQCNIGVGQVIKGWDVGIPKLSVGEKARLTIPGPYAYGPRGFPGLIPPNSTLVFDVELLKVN

B1: Gal80p (other, yeast, UniProt P04387 1-435, looked up)
chain: MDYNKRSSVSTVPNAAPIRVGFVGLNAAKGWAIKTHYPAILQLSSQFQITALYSPKIETSIATIQRLKLSNATAFPTLESFASSSTIDMIVIAIQVASHYEVVMPLLEFSKNNPNLKYLFVEWALACSLDQAESIYKAAAERGVQTIISLQGRKSPYILRAKELISQGYIGDINSIEIAGNGGWYGYERPVKSPKYIYEIGNGVDLVTTTFGHTIDILQYMTSSYFSRINAMVFNNIPEQELIDERGNRLGQRVPKTVPDHLLFQGTLLNGNVPVSCSFKGGKPTKKFTKNLVIDIHGTKGDLKLEGDAGFAEISNLVLYYSGTRANDFPLANGQQAPLDPGYDAGKEIMEVYHLRNYNAIVGNIHRLYQSISDFHFNTKKIPELPSQFVMQGFDFEGFPTLMDALILHRLIESVYKSNMMGSTLNVSNISHYSL
B2: Myr-Hom3p (other, yeast)
chain: MGCTVSTQTIGDESDPMPMDFQPTSSHSNWVVQKFGGTSVGKFPVQIVDDIVKHYSKPDGPNNNVAVVCSARSSYTKAEGTTSRLLKCCDLASQESEFQDIIEVIRQDHIDNADRFILNPALQAKLVDDTNKELELVKKYLNASKVLGEVSSRTVDLVMSCGEKLSCLFMTALCNDRGCKAKYVDLSHIVPSDFSASALDNSFYTFLVQALKEKLAPFVSAKERIVPVFTGFFGLVPTGLLNGVGRGYTDLCAALIAVAVNADELQVWKEVDGIFTADPRKVPEARLLDSVTPEEASELTYYGSEVIHPFTMEQVIRAKIPIRIKNVQNPLGNGTIIYPDNVAKKGESTPPHPPENLSSSFYEKRKRGATAITTKNDIFVINIHSNKKTLSHGFLAQIFTILDKYKLVVDLISTSEVHVSMALPIPDADSLKSLRQAEEKLRILGSVDITKKLSIVSLVGKHMKQYIGIAGTMFTTLAEEGINIEMISQGANEINISCVINESDSIKALQCIHAKLLSERTNTSNQFEHAIDERLEQLKRLGI
modifications: N-myristoylation at the N-terminal signal
notes: Encoded on a pRS424 backbone under the ADH2 promoter; also called pGP130; not shown: CFP amplified from pDH3

Tests used:
Gal4p = Gal4p (yeast, UniProt P04386 1-881); experiment: formaldehyde cross-linking and chromatin immunoprecipitation at UASGAL, wild type yeast, un-induced and galactose induced
Protocol: Fold enrichments are indicated (enrichment). […] FIG. 3C illustrates quantitation of promoter occupancy by Gal4p, Gal80p and Gal3p in un-induced and induced cells. Values are means (±standard deviation) of at least five experiments carried out with two sets of independently prepared chromatin samples.
Chromatin immunoprecipitations were performed as described by Braunstein et al., 1993, Genes Dev. 7: 592-604 and Kuras et al. 1999, Nature 399: 609-613. Briefly, wild type Sc723 cells (Blank et al., 1997, Mol. Cell. Biol. 17: 2566-2575) were grown to early exponential growth phase (as measured by absorbance at 600 nm ˜0.4) in 250 mL yeast extract-peptone medium containing 2% glycerol, 3% lactic acid, and 0.05% glucose (−galactose, un-induced). For galactose-induced cultures, galactose was added to the un-induced cultures to a final concentration of 2% and the cultures were incubated for an additional 20 minutes. Formaldehyde was added to a final concentration of 1%, the cultures were incubated for 20 minutes at room temperature, and glycine was added to a final concentration of 300 mM. All the following steps were carried out at 4° C. Cells were washed twice with TBS (20 mM Tris-HCl, 150 mM NaCl, pH 8.0), resuspended in 1 mL lysis buffer (50 mM Tris-HCl pH 8.0, 10 mM EDTA, 1% SDS, 1 mM PMSF), and disrupted by vortexing with glass beads. […]

wild type Gal3p = biological target: T1, wild type Gal3p; experiment: conclusion from Examples 1-3 (localisation, reporter induction, chromatin immunoprecipitation) in yeast with galactose
Gal80-Fpr1p fusion = biological target: T2, Gal80-Fpr1p fusion; experiment: 80-Trap assay in yeast, HIS3 reporter growth without galactose
Protocol: FIG. 4A illustrates FK506-dependent HIS3 reporter expression. Gal80-Fpr1 designates the Gal80-Fpr1p fusion. Myr-Cna1 designates the plasma membrane targeted Cna1p. Myr-Cmd1 is a plasma membrane targeted calmodulin and is used as a control. The nutrient agar plates used here lacked histidine, tryptophan and uracil and contained 0.5% galactose/3% glycerol/2% lactic acid as carbon source. FK506 was used at 0.25 μg/mL where indicated. Identical results were obtained using nutrient agar lacking galactose (data not shown). […] The nutrient agar plate lacked histidine, tryptophan and uracil and contained 3% glycerol/2% lactic acid as carbon source. Galactose was used at 0.5% where indicated. The lack of tryptophan and uracil are required for selection and maintenance in yeast of the two plasmids Gal80-Fpr1p and Myr-Cna1p, and the lack of histidine is to provide a selective assay for the protein-protein interaction that activates the HIS3 reporter gene carried on a yeast chromosome.
FK506 was used to trigger the interaction between a Gal80-Fpr1p fusion and plasma membrane-localized Myr-Can1p. […] Induction of the galactose-inducible HIS3 reporter gene was assayed. […] It has been reported that Fpr1p also interacts with Hom3p, the aspartokinase, in the absence of FK506 in a yeast two-hybrid assay (Alarcon and Heitman, 1997, Mol. Cell Bio., 17: 5968-5975).

Chain of Gal4p (P04386 whole entry, the tested form may be a part): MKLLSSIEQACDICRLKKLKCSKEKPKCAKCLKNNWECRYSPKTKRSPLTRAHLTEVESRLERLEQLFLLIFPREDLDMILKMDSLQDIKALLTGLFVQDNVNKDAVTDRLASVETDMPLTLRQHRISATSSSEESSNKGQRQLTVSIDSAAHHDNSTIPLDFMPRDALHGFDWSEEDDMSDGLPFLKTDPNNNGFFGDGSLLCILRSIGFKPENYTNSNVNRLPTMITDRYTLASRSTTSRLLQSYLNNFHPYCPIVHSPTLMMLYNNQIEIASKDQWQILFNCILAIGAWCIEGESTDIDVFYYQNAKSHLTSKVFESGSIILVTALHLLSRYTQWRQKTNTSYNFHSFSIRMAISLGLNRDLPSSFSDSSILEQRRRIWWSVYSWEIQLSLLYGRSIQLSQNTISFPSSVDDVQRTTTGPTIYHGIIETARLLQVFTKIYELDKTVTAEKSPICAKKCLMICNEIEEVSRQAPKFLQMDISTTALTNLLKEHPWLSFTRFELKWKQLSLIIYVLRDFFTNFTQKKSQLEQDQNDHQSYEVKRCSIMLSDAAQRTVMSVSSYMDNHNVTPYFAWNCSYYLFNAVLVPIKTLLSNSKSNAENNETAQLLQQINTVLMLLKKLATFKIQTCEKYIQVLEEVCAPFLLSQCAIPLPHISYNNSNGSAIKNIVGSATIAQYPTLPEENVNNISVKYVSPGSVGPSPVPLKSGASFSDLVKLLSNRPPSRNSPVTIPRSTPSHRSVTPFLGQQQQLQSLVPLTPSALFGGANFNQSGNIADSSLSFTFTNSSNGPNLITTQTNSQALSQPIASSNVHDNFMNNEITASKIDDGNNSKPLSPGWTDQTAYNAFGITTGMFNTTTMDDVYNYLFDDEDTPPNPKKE

Row | Binder | binding result (Gal4p) | binding result (wild type Gal3p) | binding result (Gal80-Fpr1p fusion)
1 | B1 | binds | binds | 
2 | B2 |  |  | binds
